Assay results: patent US20230375531A1 (MIT, published 2023)

B1: Sso.E2 (rcSso7d binder against SARS-CoV-2 N protein) (designed binder)
chain: MATVKFTYQGEEKQVDISKIKNVGRWGQIIDFDYDEGGGAIGIGAVSEKDAPKELLQMLEKQ
B2: BA-MBP-Sso.E2 (Sso.E2 fused to biotin and maltose binding protein) (designed binder)
chain: B1 chain
B3: Sso.E1 (rcSso7d binder against SARS-CoV-2 N protein) (designed binder)
chain: MATVKFTYQGEEKQVDISKIKIVRRGGQWISFWYDEGGGAYGAGYVSEKDAPKELLQMLEKQ
B4: BA-MBP-Sso.E1 (Sso.E1 fused to biotin and maltose binding protein) (designed binder, not shown: small tags and cut ends; large carriers)
chain: B3 chain
notes: also called reporter reagent

How the values were obtained:
[1] = molecular target: SARS-CoV-2 nucleocapsid (N) protein, recombinant, residues 1-419 (SARS-CoV-2, UniProt P0DTC9 1-419)
[2] = molecular target: T1, truncated C-terminal domain (CTD) of SARS-CoV-2 N protein (SARS-CoV-2, UniProt P0DTC9 247-364); test: BLI, BA-MBP-Sso.E2 on streptavidin probes
T1 construct: domain: C-terminal domain (CTD)

[3] = molecular target: T2, truncated N-terminal domain (NTD) of SARS-CoV-2 N protein (SARS-CoV-2, UniProt P0DTC9 44-180); test: BLI, BA-MBP-Sso.E1 on streptavidin probes
T2 construct: domain: N-terminal domain (NTD)

| Binder | Kd [1] [nM] | further results |
| --- | --- | --- |
| B1 | 4.2 | – |
| B2 | – | binding result [2]: no binding |
| B3 | 3.2 | – |
| B4 | – | binding result [3]: no binding |
